Drawing on patent US20240117035A1, this text covers IC50 for one molecule.

Assay [1] addresses human CLDN18.2 on cells (human) (UniProt P56856). Description: flow cytometry on hCLDN18.2-expressing HEK293 cells.
For assay [2] the target is unchanged. Description: flow cytometry on SNU601 cells. A general note: Flow cytometry measures light scatter and fluorescence of single cells or particles in a stream.

B1: m-anti-human CLDN18.2-13 monoclonal antibody (antibody, mouse IgG2a, kappa, V domains shown)
VH: QLQLQQSGTELVRPGSSVKISCKASGYAFSNYWMNWVKQRPGQGLEWIGQIYPGNGDTKYNGNFKGKATLTADKSSSTAYMQLSSLTSEDSADYFCARYYRGNCFDYWGQGTTLTVSS
VL: DIVLTQSPSSLTVTAGEKVTMSCKSSQSLLNSGNQKNYLTWYQQKPGQPPKLLIYWASTRDSGVPARFTGSGSGTDFTLTINSVQAEDLAVYYCQNAYTYPLTFGAGTKLEIKR
By IC50 is commonly meant the concentration at which inhibition is half-maximal. B1: the IC50 in assay [1] is 0.701 µg/mL; in assay [2] it was 0.811 µg/mL.
